In PMC12273708, “Biochemical and Biophysical Divergences between Two L‑Asparaginase II Variants: Potential for Using EcA2-K12 as a Biosimilar” (Biochemistry, 2025):

Tests used:
[1] = SEC; analytical size exclusion chromatography, TSKgel G2000SWXL, 50 uM enzyme in 25 mM sodium phosphate pH 7.4, 100 mM sodium chloride, 0.35 mL/min; hydrodynamic radius against globular standards
[2] = biological target: T1, EcA2-K12 (L-asparaginase II, K12 strain) (Escherichia coli, UniProt P00805); assay: intrinsic tryptophan fluorescence titration (spectral center of mass), Hill fit; type: binding
T1 construct: gene ansB; mature protein (precursor residues 23 to 348) behind a pelB leader, pET25b, secreted from E. coli BL21(DE3), purified from medium; no tag mentioned; homotetramer with four active sites
T1 sequence (P00805 23-348): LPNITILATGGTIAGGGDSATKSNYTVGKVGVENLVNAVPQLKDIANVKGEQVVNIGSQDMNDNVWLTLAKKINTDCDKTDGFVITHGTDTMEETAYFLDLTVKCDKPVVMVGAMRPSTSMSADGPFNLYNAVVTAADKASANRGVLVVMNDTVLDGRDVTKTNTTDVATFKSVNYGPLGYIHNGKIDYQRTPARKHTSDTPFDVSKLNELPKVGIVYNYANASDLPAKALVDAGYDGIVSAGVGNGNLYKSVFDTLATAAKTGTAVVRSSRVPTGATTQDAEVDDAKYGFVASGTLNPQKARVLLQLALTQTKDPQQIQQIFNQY

[3] = biological target: T2, EcA2-4M (L-asparaginase II, BL21(DE3) / Elspar sequence) (Escherichia coli, UniProt P00805, N86D/S274T/T285N/V49A); assay: as above; type: binding
T2 construct: gene ansB; mature protein (precursor residues 23 to 348) behind a pelB leader, pET25b, secreted from E. coli BL21(DE3), purified from medium; no tag mentioned; homotetramer with four active sites
T2 sequence (P00805 23-348 V49A/N86D/S274T/T285N): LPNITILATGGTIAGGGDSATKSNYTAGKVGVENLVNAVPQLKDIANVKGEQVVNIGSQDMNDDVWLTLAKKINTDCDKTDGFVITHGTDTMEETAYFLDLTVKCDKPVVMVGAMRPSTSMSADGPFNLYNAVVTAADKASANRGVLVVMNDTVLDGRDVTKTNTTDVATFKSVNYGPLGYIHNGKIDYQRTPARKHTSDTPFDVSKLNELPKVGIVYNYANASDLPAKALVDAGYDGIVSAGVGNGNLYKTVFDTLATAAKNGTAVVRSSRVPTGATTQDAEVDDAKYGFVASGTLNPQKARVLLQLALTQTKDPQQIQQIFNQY

[4] = biological target: L-asparaginase II from the K12 strain (EcA2-K12) (Escherichia coli, strain K12 (strain printed; the species name is lost from the text shown)); assay: SEC; analytical size exclusion chromatography, TSKgel G2000SWXL, 50 uM enzyme in 25 mM sodium phosphate pH 7.4, 100 mM sodium chloride, 0.35 mL/min; hydrodynamic radius against globular standards
[5] = biological target: L-asparaginase II variant EcA2-4M (sequence of the BL21(DE3) strain and of Elspar) (Escherichia coli, strain BL21(DE3) (strain printed; the species name is lost from the text shown)); assay: as above
[6] = substrate: NC(=O)C[C@H](N)C(=O)O; assay: 1D 1H NMR progress curves, Lambert W fit of integrated Michaelis-Menten equation; type: biochemical, Escherichia coli; conditions: 160 μM L-Asn, 2.1 nM enzyme, 100 mM sodium phosphate pH 8.0, 10% D2O, 25 °C
Source text: (§1) 1D 1H NMR progress curves, Lambert W fit of integrated Michaelis-Menten equation on EcA2-K12 (L-asparaginase II, K12 strain)

[7] = substrate: NC(=O)CC[C@H](N)C(=O)O; assay: as above; type: biochemical, Escherichia coli; conditions: 640 μM L-Gln, 2.5 μM enzyme, 100 mM sodium phosphate pH 8.0, 10% D2O, 25 °C
Source text: as §1

[8] = substrate: NC(=O)C[C@H](N)C(=O)O; assay: as above; type: biochemical, Escherichia coli; conditions: 160 μM L-Asn, 1.0 nM enzyme, 100 mM sodium phosphate pH 8.0, 10% D2O, 25 °C
Source text: (§2) 1D 1H NMR progress curves, Lambert W fit of integrated Michaelis-Menten equation on EcA2-4M (L-asparaginase II, BL21(DE3) / Elspar sequence)

[9] = substrate: NC(=O)CC[C@H](N)C(=O)O; assay: as above; type: biochemical, Escherichia coli; conditions: 640 μM L-Gln, 1.3 μM enzyme, 100 mM sodium phosphate pH 8.0, 10% D2O, 25 °C
Source text: as §2

## L-asparaginase II from the K12 strain (EcA2-K12)
[1]
  prepeak percentage of the total area (species of larger hydrodynamic radii): 13% for EcA2-K12

## N[C@@H](CC(=O)O)C(=O)O [L-Asp]
[2]
  Kd: 211 ± 52 µM
[3]
  Kd: 66 ± 14 µM

## L-asparaginase II variant EcA2-4M (sequence of the BL21(DE3) strain and of Elspar)
[1]
  prepeak percentage of the total area (species of larger hydrodynamic radii): approximately 5%

## L-asparaginase II from the K12 strain (EcA2-K12) (enzyme)
[4]
  stoichiometry N: 4

## L-asparaginase II variant EcA2-4M (sequence of the BL21(DE3) strain and of Elspar) (enzyme)
[5]
  stoichiometry N: 4

B1: EcA2-K12 (L-asparaginase II, K12 strain) (Escherichia coli K-12) (protein)
chain: LPNITILATGGTIAGGGDSATKSNYTVGKVGVENLVNAVPQLKDIANVKGEQVVNIGSQDMNDNVWLTLAKKINTDCDKTDGFVITHGTDTMEETAYFLDLTVKCDKPVVMVGAMRPSTSMSADGPFNLYNAVVTAADKASANRGVLVVMNDTVLDGRDVTKTNTTDVATFKSVNYGPLGYIHNGKIDYQRTPARKHTSDTPFDVSKLNELPKVGIVYNYANASDLPAKALVDAGYDGIVSAGVGNGNLYKSVFDTLATAAKTGTAVVRSSRVPTGATTQDAEVDDAKYGFVASGTLNPQKARVLLQLALTQTKDPQQIQQIFNQY
notes: mature protein (precursor residues 23 to 348) behind a pelB leader, pET25b, secreted from E. coli BL21(DE3), purified from medium; no tag mentioned; homotetramer with four active sites
[6]
  Km: 8 ± 3 µM
[7]
  Km: 2301 ± 75 µM

B2: EcA2-4M (L-asparaginase II, BL21(DE3) / Elspar sequence) (Escherichia coli K-12; N86D/S274T/T285N/V49A) (protein)
chain: LPNITILATGGTIAGGGDSATKSNYTAGKVGVENLVNAVPQLKDIANVKGEQVVNIGSQDMNDDVWLTLAKKINTDCDKTDGFVITHGTDTMEETAYFLDLTVKCDKPVVMVGAMRPSTSMSADGPFNLYNAVVTAADKASANRGVLVVMNDTVLDGRDVTKTNTTDVATFKSVNYGPLGYIHNGKIDYQRTPARKHTSDTPFDVSKLNELPKVGIVYNYANASDLPAKALVDAGYDGIVSAGVGNGNLYKTVFDTLATAAKNGTAVVRSSRVPTGATTQDAEVDDAKYGFVASGTLNPQKARVLLQLALTQTKDPQQIQQIFNQY
notes: as for B1
[8]
  Km: 11 ± 5 µM
[9]
  Km: 3.111 ± 0.159 mM
